The text below walks through data of patent US20180051287.

Usually IC50 stands for the midpoint of a concentration-inhibition curve.

One data set deals with casein. The data set can be described thus: FP filter. Particulars: specificity control; 100 nM DNA, 20 uM casein.
The target of data set [1] is complement factor D (fD) (UniProt P00746). The data set can be described thus: FP filter. The settings on record: 100 nM DNA, 5 uM fD.
For data set [2] the target is unchanged. Kind of data set: flow. Particulars: 2'-F G, 2'-OMe A, C, U, apparent Kd of pool, SB1T, 37 C.
Data set [3] shares this target. Kind of data set: inhibition. The settings on record: non-specific control oligo.

Sequence of complement factor D (fD) (P00746 26-253): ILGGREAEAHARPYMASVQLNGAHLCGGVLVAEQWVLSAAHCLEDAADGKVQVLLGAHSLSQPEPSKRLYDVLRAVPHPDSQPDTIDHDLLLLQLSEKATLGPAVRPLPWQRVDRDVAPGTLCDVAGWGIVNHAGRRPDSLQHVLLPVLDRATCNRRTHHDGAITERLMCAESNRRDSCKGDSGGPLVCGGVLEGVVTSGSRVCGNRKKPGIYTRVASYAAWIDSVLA

For “GTGACGACTGACATATCTGCCCTATAGGGGTGTGGGCGAGGGGTGGGTGGTAGGGCGGCTCGTAGTTGAGTCTGAGTGCT [Aptamer 10 (rank 7)]”, in the data set with casein, the binding signal amounted to 0.2 % bound. Same read-out and setting: then “GTGACGACTGACATATCTGCTGCTTCCAGCGGTCATGATATGCACTGTCTGAAGCTCGGTCGTAGTTGAGTCTGAGTGCT [Aptamer 15 (rank 12)]”, with 0.2 % bound.

In the data set with complement factor D (fD) [1] (round 9 pool), “GTGACGACTGACATATCTGCNNNNNNNNNNNNNNNNNNNNNNNNNNNNNNNNNNNNNNNNCGTAGTTGAGTCTGAGTGCT [DNA selection round 9 pool]” displayed a binding signal of 14.6 % bound. On to “GGGAGUGUGUACGAGGCAUUAGGCCGCCNNNNNNNNNNNNNNNNNNNNNNNNNNNNNNGGCGGCUUUGAUACUUGAUCGCCCUAGAAGC [N30S selection round 6 pool]”, for which the Kd with complement factor D (fD) [2] was 34.4 nM. Consider “GTGACGACTGACATATCTGCGTTTGGGGTTGGGGCCTGGGAGTTTGGGGAGCAGAAAGGACGTAGTTGAGTCTGAGTGCT [Aptamer 5 (rank 2)]”, for which the binding signal with casein came out at 0.5 % bound. Regarding “GGGAGUGUGUACGAGGCAUUAGGCCGCCNNNNNNNNNNNNNNNNNNNNNNNNNNNNNNGGCGGCUUUGAUACUUGAUCGCCCUAGAAGC [N30S selection round 8 pool]”, the Kd with complement factor D (fD) [2] (competed by anti-fD Fab AFD) was 8.8 nM.

“GTGACGACTGACATATCTGCTATTTTGGGGCCTGGGTGTTGGGGATTGGGGACTATGTGTCGTAGTTGAGTCTGAGTGCT [Aptamer 8 (rank 5)]”: in the data set with casein, the binding signal stood at 0.3 % bound.

For the substance C8 non-specific control oligo, the IC50 with complement factor D (fD) [3] (alternative-pathway hemolysis) was greater than 160 nM. In the data set with complement factor D (fD) [3] (fD esterase assay), the activity was found to be 105 % activity. Regarding “GTGACGACTGACATATCTGCGGGCGTCTGAGCGCATGGATGACCCACCGACAGATTGCGGCGTAGTTGAGTCTGAGTGCT [Aptamer 27 (rank 24)]”, in the data set with casein, the binding signal was 0.6 % bound. Still for that read-out and setting: then “GTGACGACTGACATATCTGCTCCGAGGTTATTGGGGTTGGGGCCTGGGCGATTGGGGCCTCGTAGTTGAGTCTGAGTGCT [Aptamer 4 (rank 1)]”, with 0.5 % bound; and “GTGACGACTGACATATCTGCGGCGGTTGGGGTCGAAGGGCGAGGGGTGGGAGGTCGCCGTAGTTGAGTCTGAGTGCT [Aptamer 7 (rank 4)]”, with 0.1 % bound. The same measure, in the same setting: then “GTGACGACTGACATATCTGCAAAAGTTAGATTGACATGGTATGCACCGTCTGAGGTTGGTCGTAGTTGAGTCTGAGTGCT [Aptamer 12 (rank 9)]”, with 0.6 % bound. “GGGAGUGUGUACGAGGCAUUAGGCCGCCNNNNNNNNNNNNNNNNNNNNNNNNNNNNNNGGCGGCUUUGAUACUUGAUCGCCCUAGAAGC [N30S selection round 7 pool]”: the Kd with complement factor D (fD) [2] (competed by anti-fD Fab AFD) is 45.1 nM. For the substance “GTGACGACTGACATATCTGCNNNNNNNNNNNNNNNNNNNNNNNNNNNNNNNNNNNNNNNNCGTAGTTGAGTCTGAGTGCT [naive N40 DNA library]”, the binding signal in the data set with casein stood at 0.5 % bound; in the data set with complement factor D (fD) [1] (naive library background), 3.6 % bound; with complement factor D (fD) [1] (round 0 library) it was 0.88 % bound.
